Measured values from publication PMC6377682 (2019).

B1: human ASPP1^882-1090 [human] / human PP1β^6-327 [human] (parent complex)
chain 1: LRVRFNPLALLLDASLEGEFDLVQRIIYEVEDPSKPNDEGITPLHNAVCAGHHHIVKFLLDFGVNVNAADSDGWTPLHCAASCNSVHLCKQLVESGAAIFASTISDIETAADKCEEMEEGYIQCSQFLYGVQEKLGVMNKGVAYALWDYEAQNSDELSFHEGDALTILRRKDESETEWWWARLGDREGYVPKNLLGLYPRIKPRQRTLA
chain 2: LNVDSLITRLLEVRGCRPGKIVQMTEAEVRGLCIKSREIFLSQPILLELEAPLKICGDIHGQYTDLLRLFEYGGFPPEANYLFLGDYVDRGKQSLETICLLLAYKIKYPENFFLLRGNHECASINRIYGFYDECKRRFNIKLWKTFTDCFNCLPIAAIVDEKIFCCHGGLSPDLQSMEQIRRIMRPTDVPDTGLLCDLLWSDPDKDVQGWGENDRGVSFTFGADVVSKFLNRHDLDLICRAHQVVEDGYEFFAKRQLVTLFSAPNYCGEFDNAGGMMSVDETLMCSFQILKPSEKKAKYQYGGLNSGRPVTPPRTANPPKKR
B2: human ASPP2^920-1120 [human] / human PP1β^6-327 [human] (parent complex)
chain 1: MRVKFNPLALLLDSSLEGEFDLVQRIIYEVDDPSLPNDEGITALHNAVCAGHTEIVKFLVQFGVNVNAADSDGWTPLHCAASCNNVQVCKFLVESGAAVFAMTYSDMQTAADKCEEMEEGYTQCSQFLYGVQEKMGIMNKGVIYALWDYEPQNDDELPMKEGDCMTIIHREDEDEIEWWWARLNDKEGYVPRNLLGLYPRI
chain 2: B1 chain 2
B3: human ASPP2^920-1120 [human] / PP1α^301-330 C-tail peptide [human] (parent complex)
chain 1: B2 chain 1
chain 2: KNKGKYGQFSGLNPGGRPITPPRNSAKAKK
B4: PP1α^301-330 C-tail peptide [human] / human ASPP2^920-1120 [human] (parent complex)
chain 1: B3 chain 2
chain 2: B2 chain 1

Variants of: B1
Experiment: BLI

Row | Variant | Kd
1 | chain 1 LRVRFNPLALLLDASLEGEFDLVQRIIYEVEDPSKPNDEGITPLHNAVCAGHHHIVKFLLDFGVNVNAADSDGWTPLHCAASCNSVHLCKQLVESGAAIFASTISDIETAADKCEEMEEGYIQCSQFLYGVQEKLGVMNKGVAYALWDYEAQNSDELSFHEGDALTILRREDEDETEWWWARLGDREGYVPKNLLGLYPRIKPRQRTLA [chain 1 K171E, chain 1 S174D] | 84.4 nM

Variants of: B2
Experiment: BLI

Row | Variant | Kd
2 | chain 1 MRVKFNPLALLLDSSLEGEFDLVQRIIYEVDDPSLPNDEGITALHNAVCAGHTEIVKFLVQFGVNVNAADSDGWTPLHCAASCNNVQVCKFLVESGAAVFAMTYSDMQTAADKCEEMEEGYTQCSQFLYGVQEKMGIMNKGVIYALWDYEPQNDDELPMKEGDCMTIIHRKDESEIEWWWARLNDKEGYVPRNLLGLYPRI [chain 1 E171K, chain 1 D174S] | 178 nM
3 | chain 1 MRVKFNPLALLLDSSLEGEFDLVQRIIYEVDDPSLPNDEGITALHNAVCAGHTEIVKFLVQFGVNVNAADSDGWTPLHCAASCNNVQVCKFLVESGAAVFAMTYSDMQTAADKCEEMEEGYTQCSQFLYGVQEKMGIMNKGVIYALWDYEPQNDDELPMKEGDCMTIIHREDESEIEWWWARLNDKEGYVPRNLLGLYPRI [chain 1 D174S] | 136 nM

Variants of: B3
Experiment: ITC

Row | Variant | Kd
4 | chain 1 MRVKFNPLALLLDSSLEGEFDLVQRIIYEVDDPSLPNDEGITALHNAVCAGHTEIVKFLVQFGVNVNAADSDGWTPLHCAASCNNVQVCKFLVESGAAVFAMTYSDMQTAADKCEEMEEGYTQCSQFLYGVQEKMGIMNKGVIYALWDYEPQNDDELPMKEGDCMTIIHREGPDEIEWWWARLNDKEGYVPRNLLGLYPRI [chain 1 D172G, chain 1 E173P] | 172 nM

Variants of: B4
Experiment: ITC

Row | Variant | Kd
5 | chain 1 KNKGKYGQFSGLNPGGRPITPPRNSAKAAK | 342 nM
6 | chain 1 KNKGKYGQFSGLNPGGRPITPPRNSAAAKK | 520 nM
7 | chain 1 KNKGKYGQFSGLNPGGRPITPPRNSAKAKA | 326 nM
